Experimental data reported in US20100260668A1 (published 2010).

B1: DVD471 (DLL4/VEGF DVD-Ig) (bispecific antibody, human IgG1)
VH: EVQLVESGGGLVQPGGSLRLSCAASGFTFTDNWISWVRQAPGKGLEWVGYISPNSGFTYYADSVKGRFTISADTSKNTAYLQMNSLRAEDTAVYYCARDNFGGYFDYWGQGTLVTVSSASTKGPSVFPLAPEVQLVESGGGLVQPGGSLRLSCAASGFTISDYWIHWVRQAPGKGLEWVAGITPAGGYTYYADSVKGRFTISADTSKNTAYLQMNSLRAEDTAVYYCARFVFFLPYAMDYWGQGTLVTVSS
VL: DIQMTQSPSSLSASVGDRVTITCRASQDVSTAVAWYQQKPGKAPKLLIYSASFLYSGVPSRFSGSGSGTDFTLTISSLQPEDFATTYYCQQSYTGTVTFGQGTKVEIKRTVAAPSVFIFPPDIQMTQSPSSLSASVGDRVTITCRASQDVSTAVAWYQQKPGKAPKLLIYSASFLYSGVPSRFSGSGSGTDFTLTISSLQPEDFATYYCQQSYTTPPTFGQGTKVEIKR
notes: HC linker long, LC linker long; also called DVD471H; DVD471L
B2: DVD472 (VEGF/DLL4 DVD-Ig) (bispecific antibody, human IgG1)
VH: EVQLVESGGGLVQPGGSLRLSCAASGFTISDYWIHWVRQAPGKGLEWVAGITPAGGYTYYADSVKGRFTISADTSKNTAYLQMNSLRAEDTAVYYCARFVFFLPYAMDYWGQGTLVTVSSASTKGPSVFPLAPEVQLVESGGGLVQPGGSLRLSCAASGFTFTDNWISWVRQAPGKGLEWVGYISPNSGFTYYADSVKGRFTISADTSKNTAYLQMNSLRAEDTAVYYCARDNFGGYFDYWGQGTLVTVSS
VL: DIQMTQSPSSLSASVGDRVTITCRASQDVSTAVAWYQQKPGKAPKLLIYSASFLYSGVPSRFSGSGSGTDFTLTISSLQPEDFATYYCQQSYTTPPTFGQGTKVEIKRTVAAPSVFIFPPDIQMTQSPSSLSASVGDRVTITCRASQDVSTAVAWYQQKPGKAPKLLIYSASFLYSGVPSRFSGSGSGTDFTLTISSLQPEDFATTYYCQQSYTGTVTFGQGTKVEIKR
notes: HC linker long, LC linker long; also called DVD472H; DVD472L
B3: DVD477 (DLL4/VEGF DVD-Ig) (bispecific antibody, human IgG1)
VH: B1 VH
VL: DIQMTQSPSSLSASVGDRVTITCRASQDVSTAVAWYQQKPGKAPKLLIYSASFLYSGVPSRFSGSGSGTDFTLTISSLQPEDFATTYYCQQSYTGTVTFGQGTKVEIKRTVAAPDIQMTQSPSSLSASVGDRVTITCRASQDVSTAVAWYQQKPGKAPKLLIYSASFLYSGVPSRFSGSGSGTDFTLTISSLQPEDFATYYCQQSYTTPPTFGQGTKVEIKR
notes: HC linker long, LC linker short; also called DVD477H; DVD477L
B4: DVD449 (DLL4/VEGF DVD-Ig) (bispecific antibody, human IgG1)
VH: QVQLVQSGAEVKKPGASVKISCKASGYSFTAYYIHWVKQAPGQGLEWIGYISSYNGATNYNQKFKGRVTFTTDTSTSTAYMELRSLRSDDTAVYYCARDYDYDVGMDYWGQGTLVTVSSASTKGPSVFPLAPEVQLVESGGGLVQPGGSLRLSCAASGFTISDYWIHWVRQAPGKGLEWVAGITPAGGYTYYADSVKGRFTISADTSKNTAYLQMNSLRAEDTAVYYCARFVFFLPYAMDYWGQGTLVTVSS
VL: DIVMTQSPDSLAVSLGERATISCRASESVDNYGISFMKWFQQKPGQPPKLLIYAASNQGSGVPDRFSGSGSGTDFTLTISSLQAEDVAVYYCQQSKEVPWTFGGGTKVEIKRTVAAPSVFIFPPDIQMTQSPSSLSASVGDRVTITCRASQDVSTAVAWYQQKPGKAPKLLIYSASFLYSGVPSRFSGSGSGTDFTLTISSLQPEDFATYYCQQSYTTPPTFGQGTKVEIKR
notes: HC linker long, LC linker long; also called DVD449H; DVD449L
B5: DVD450 (VEGF/DLL4 DVD-Ig) (bispecific antibody, human IgG1)
VH: EVQLVESGGGLVQPGGSLRLSCAASGFTISDYWIHWVRQAPGKGLEWVAGITPAGGYTYYADSVKGRFTISADTSKNTAYLQMNSLRAEDTAVYYCARFVFFLPYAMDYWGQGTLVTVSSASTKGPSVFPLAPQVQLVQSGAEVKKPGASVKISCKASGYSFTAYYIHWVKQAPGQGLEWIGYISSYNGATNYNQKFKGRVTFTTDTSTSTAYMELRSLRSDDTAVYYCARDYDYDVGMDYWGQGTLVTVSS
VL: DIQMTQSPSSLSASVGDRVTITCRASQDVSTAVAWYQQKPGKAPKLLIYSASFLYSGVPSRFSGSGSGTDFTLTISSLQPEDFATYYCQQSYTTPPTFGQGTKVEIKRTVAAPSVFIFPPDIVMTQSPDSLAVSLGERATISCRASESVDNYGISFMKWFQQKPGQPPKLLIYAASNQGSGVPDRFSGSGSGTDFTLTISSLQAEDVAVYYCQQSKEVPWTFGGGTKVEIKR
notes: HC linker long, LC linker long; also called DVD450H; DVD450L
B6: DVD514 (VEGF/DLL4 DVD-Ig) (bispecific antibody, human IgG1)
VH: EVQLVESGGGLVQPGGSLRLSCAASGFTISDYWIHWVRQAPGKGLEWVAGITPAGGYTYYADSVKGRFTISADTSKNTAYLQMNSLRAEDTAVYYCARFVFFLPYAMDYWGQGTLVTVSSASTKGPEVQLQQSGPELEKPGASVKISCKASGYSFTGYNMNWVKQSNGKSLEWIGNIDPYFGGTNYNQKFKGKATLTVDKSSSTAYMQLKSLTSEDSAVYYCARNYDYDGGCFDYWGQGTTLTVSS
VL: DIQMTQSPSSLSASVGDRVTITCRASQDVSTAVAWYQQKPGKAPKLLIYSASFLYSGVPSRFSGSGSGTDFTLTISSLQPEDFATYYCQQSYTTPPTFGQGTKVEIKRTVAAPQAVVTQESALTTSPGETVTLTCRSSTGAVTTSNYANWVQEKPDHLFTGLIGGTNNRAPGVPARFSGSLIGDKAALTITGAQTEDEAIYFCALWYSNHWVFGGGTKLTVLG
notes: HC linker short, LC linker short; also called DVD514H; DVD514L
B7: DVD519 (DLL4/VEGF DVD-Ig) (bispecific antibody, human IgG1)
VH: EVQLQQSGPELEKPGASVKISCKASGYSFTGYNMNWVKQSNGKSLEWIGNIDPYFGGTNYNQKFKGKATLTVDKSSSTAYMQLKSLTSEDSAVYYCARNYDYDGGCFDYWGQGTTLTVSSASTKGPSVFPLAPEVQLVESGGGLVQPGGSLRLSCAASGFTISDYWIHWVRQAPGKGLEWVAGITPAGGYTYYADSVKGRFTISADTSKNTAYLQMNSLRAEDTAVYYCARFVFFLPYAMDYWGQGTLVTVSS
VL: QAVVTQESALTTSPGETVTLTCRSSTGAVTTSNYANWVQEKPDHLFTGLIGGTNNRAPGVPARFSGSLIGDKAALTITGAQTEDEAIYFCALWYSNHWVFGGGTKLTVLGQPKAAPSVTLFPPDIQMTQSPSSLSASVGDRVTITCRASQDVSTAVAWYQQKPGKAPKLLIYSASFLYSGVPSRFSGSGSGTDFTLTISSLQPEDFATYYCQQSYTTPPTFGQGTKVEIKR
notes: HC linker long, LC linker long; also called DVD519H; DVD519L
B8: DVD520 (VEGF/DLL4 DVD-Ig) (bispecific antibody, human IgG1)
VH: EVQLVESGGGLVQPGGSLRLSCAASGFTISDYWIHWVRQAPGKGLEWVAGITPAGGYTYYADSVKGRFTISADTSKNTAYLQMNSLRAEDTAVYYCARFVFFLPYAMDYWGQGTLVTVSSASTKGPSVFPLAPEVQLQQSGPELEKPGASVKISCKASGYSFTGYNMNWVKQSNGKSLEWIGNIDPYFGGTNYNQKFKGKATLTVDKSSSTAYMQLKSLTSEDSAVYYCARNYDYDGGCFDYWGQGTTLTVSS
VL: DIQMTQSPSSLSASVGDRVTITCRASQDVSTAVAWYQQKPGKAPKLLIYSASFLYSGVPSRFSGSGSGTDFTLTISSLQPEDFATYYCQQSYTTPPTFGQGTKVEIKRTVAAPSVFIFPPQAVVTQESALTTSPGETVTLTCRSSTGAVTTSNYANWVQEKPDHLFTGLIGGTNNRAPGVPARFSGSLIGDKAALTITGAQTEDEAIYFCALWYSNHWVFGGGTKLTVLG
notes: HC linker long, LC linker long; also called DVD520H; DVD520L
B9: DVD490 (VEGF/DLL4 DVD-Ig) (bispecific antibody, human IgG1)
VH: EVQLVESGGGLVQPGGSLRLSCAASGFTISDYWIHWVRQAPGKGLEWVAGITPAGGYTYYADSVKGRFTISADTSKNTAYLQMNSLRAEDTAVYYCARFVFFLPYAMDYWGQGTLVTVSSASTKGPEVQLQQSGPELVKPGASVKMSCKASGYTFTSYVINWVKQKPGQGLEWIGLINPYNDGTKYNEKFKVKATLTSDKSSSTAYMELSSLTSEDSAVYYCASYYYGSRYYFDYWGQGTTLTVSS
VL: DIQMTQSPSSLSASVGDRVTITCRASQDVSTAVAWYQQKPGKAPKLLIYSASFLYSGVPSRFSGSGSGTDFTLTISSLQPEDFATYYCQQSYTTPPTFGQGTKVEIKRTVAAPDIQMTQSSSYLSVSLGGRVTITCKASDHINNWLAWYQQKPGNAPRLLISGATSLETGVPSRFSGSGSGKDYTLSITSLQTEDVATYYCQQYWSIPLTFGAGTKLELKR
notes: HC linker short, LC linker short; also called DVD490H; DVD490L
B10: DVD495 (DLL4/VEGF DVD-Ig) (bispecific antibody, human IgG1)
VH: EVQLQQSGPELVKPGASVKMSCKASGYTFTSYVINWVKQKPGQGLEWIGLINPYNDGTKYNEKFKVKATLTSDKSSSTAYMELSSLTSEDSAVYYCASYYYGSRYYFDYWGQGTTLTVSSASTKGPSVFPLAPEVQLVESGGGLVQPGGSLRLSCAASGFTISDYWIHWVRQAPGKGLEWVAGITPAGGYTYYADSVKGRFTISADTSKNTAYLQMNSLRAEDTAVYYCARFVFFLPYAMDYWGQGTLVTVSS
VL: DIQMTQSSSYLSVSLGGRVTITCKASDHINNWLAWYQQKPGNAPRLLISGATSLETGVPSRFSGSGSGKDYTLSITSLQTEDVATYYCQQYWSIPLTFGAGTKLELKRTVAAPSVFIFPPDIQMTQSPSSLSASVGDRVTITCRASQDVSTAVAWYQQKPGKAPKLLIYSASFLYSGVPSRFSGSGSGTDFTLTISSLQPEDFATYYCQQSYTTPPTFGQGTKVEIKR
notes: HC linker long, LC linker long; also called DVD495H; DVD495L
B11: DVD496 (VEGF/DLL4 DVD-Ig) (bispecific antibody, human IgG1)
VH: EVQLVESGGGLVQPGGSLRLSCAASGFTISDYWIHWVRQAPGKGLEWVAGITPAGGYTYYADSVKGRFTISADTSKNTAYLQMNSLRAEDTAVYYCARFVFFLPYAMDYWGQGTLVTVSSASTKGPSVFPLAPEVQLQQSGPELVKPGASVKMSCKASGYTFTSYVINWVKQKPGQGLEWIGLINPYNDGTKYNEKFKVKATLTSDKSSSTAYMELSSLTSEDSAVYYCASYYYGSRYYFDYWGQGTTLTVSS
VL: DIQMTQSPSSLSASVGDRVTITCRASQDVSTAVAWYQQKPGKAPKLLIYSASFLYSGVPSRFSGSGSGTDFTLTISSLQPEDFATYYCQQSYTTPPTFGQGTKVEIKRTVAAPSVFIFPPDIQMTQSSSYLSVSLGGRVTITCKASDHINNWLAWYQQKPGNAPRLLISGATSLETGVPSRFSGSGSGKDYTLSITSLQTEDVATYYCQQYWSIPLTFGAGTKLELKR
notes: HC linker long, LC linker long; also called DVD496H; DVD496L

Key:
[1] = target: T1, DLL4 (DLL4 ECD/His tag, R&D Systems 1506-D4-050) (UniProt Q9NR61 27-529); experiment: Direct bind ELISA on DLL4; DLL4 domain N-term., HC long, LC long
T1 construct: extracellular domain; not shown: His tag

[2] = target: T1, DLL4 (DLL4 ECD/His tag, R&D Systems …); experiment: Direct bind ELISA on DLL4; DLL4 domain C-term., HC long, LC long
[3] = target: T1, DLL4 (DLL4 ECD/His tag, R&D Systems …); experiment: Direct bind ELISA on DLL4; DLL4 domain N-term., HC long, LC short
[4] = target: T1, DLL4 (DLL4 ECD/His tag, R&D Systems …); experiment: Direct bind ELISA on DLL4; DLL4 domain C-term., HC short, LC short

| Binder | EC50 [1] [nM] | EC50 [2] [nM] | further results |
| --- | --- | --- | --- |
| B1 | 0.89 |  |  |
| B2 |  | 2.78 |  |
| B3 |  |  | EC50 [3]: 0.69 nM |
| B4 | 0.36 |  |  |
| B5 |  | 1.99 |  |
| B6 |  |  | EC50 [4]: 21.1 nM |
| B7 | 1.53 |  |  |
| B8 |  | 17.3 |  |
| B9 |  |  | EC50 [4]: 9.27 nM |
| B10 | 0.33 |  |  |
| B11 |  | 5.59 |  |
